Measured values from article PMC12616241.

What was measured:
[1] = molecular target: FcγRIIIa on NK cells (human (endogenous in NK cells)) (UniProt P08637)
[2] = molecular target: FcγRIIIa on NK cells (human (endogenous in NK cells)) (UniProt P08637); assay: flow cytometry on cells; purified human NK cells incubated on ice with titrated monomeric antibody (0.03–10 µg/mL), detected with anti-F(ab′)2-Alexa Fluor 647

FcγRIIIa on NK cells (human (endogenous in NK cells)), sequence (P08637 17-208): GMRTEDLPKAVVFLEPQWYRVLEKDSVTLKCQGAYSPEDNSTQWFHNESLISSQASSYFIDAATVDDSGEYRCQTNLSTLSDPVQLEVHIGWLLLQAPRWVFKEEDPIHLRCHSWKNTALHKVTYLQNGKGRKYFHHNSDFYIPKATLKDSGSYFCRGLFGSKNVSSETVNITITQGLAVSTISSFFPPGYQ

Substance: anti-FRα IgG1-DE/GM (MOv18 variable regions, human IgG1 with S239D and I332E, glycomodified) (antibody)
- fold decrease in EC50 of NK cell-mediated ADCC (LDH release, 4 h, 10:1) against CAL51, compared with IgG1-GM and IgG1-DE [1]: 100 fold
- fold decrease in EC50 of NK cell-mediated ADCC (LDH release, 4 h, 10:1) against CAL51, compared with IgG1-WT [1]: 4000 fold
- fold greater KD than IgG1-WT (so in the source); stronger binding is meant [2]: 100 fold
